Measured values: patent publication CN101098892A (HOFFMANN LA ROCHE, dated 2008)
Values belong to the molecule of their own block, whether it stands above or below them.

What was measured:
[1] = biological target: IL-13Rα1 (人B细胞、单核细胞、TF-1细胞、HFL-1细胞、支气管平滑肌细胞上) (human) (UniProt P78552); experiment: cell-based or functional assay
[2] = biological target: 猕猴IL-13Rα1 (转染的Ba/F3细胞) (猕猴 (Cyno)); experiment: FACS, transfected against parental Ba/F3 cells
[3] = biological target: 猕猴IL-13Rα1 (转染的Ba/F3细胞) (猕猴 (Cyno)); experiment: FACS on Ba/F3 cells transfected with cynomolgus IL-13Rα1
[4] = biological target: 人IL-13Rα1 (表达人IL-13Rα1和人IL-4Rα的CHO细胞) (human) (UniProt P78552); experiment: displacement of 125I-IL-13 from CHO cells expressing human IL-13Rα1 and IL-4Rα
[5] = biological target: 猕猴IL-13Rα1 (转染的Ba/F3细胞) (猕猴 (Cyno)); experiment: FACS, transfected against parental Ba/F3 cells, negative control
[6] = biological target: 猕猴IL-13Rα1 (转染的Ba/F3细胞) (猕猴 (Cyno)); experiment: FACS on Ba/F3 cells transfected with cynomolgus IL-13Rα1, negative control
[7] = biological target: 猕猴IL-13Rα1 (转染的Ba/F3细胞) (猕猴 (Cyno)); experiment: FACS, transfected against parental Ba/F3 cells, secondary antibody alone
[8] = biological target: 猕猴IL-13Rα1 (转染的Ba/F3细胞) (猕猴 (Cyno)); experiment: FACS on Ba/F3 cells transfected with cynomolgus IL-13Rα1, secondary antibody alone
[9] = biological target: T1, IL-13Rα1 (人B细胞、单核细胞、TF-1细胞、HFL-1细胞、支气管平滑肌细胞上) (human, UniProt P78552 22-427); experiment: cell-based or functional assay
T1 sequence (looked up): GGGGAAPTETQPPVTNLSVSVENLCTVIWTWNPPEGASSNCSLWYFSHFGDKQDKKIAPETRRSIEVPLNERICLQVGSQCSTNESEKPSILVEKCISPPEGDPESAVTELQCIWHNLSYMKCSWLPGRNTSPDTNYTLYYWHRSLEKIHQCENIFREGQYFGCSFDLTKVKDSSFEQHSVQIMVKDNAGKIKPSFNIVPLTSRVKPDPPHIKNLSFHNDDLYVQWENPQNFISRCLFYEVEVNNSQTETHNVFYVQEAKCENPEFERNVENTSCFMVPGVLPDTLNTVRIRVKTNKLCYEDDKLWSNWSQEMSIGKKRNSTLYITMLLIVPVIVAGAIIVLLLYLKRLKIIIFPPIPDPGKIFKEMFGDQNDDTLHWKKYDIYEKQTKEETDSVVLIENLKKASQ

[10] = biological target: 猕猴IL-13Rα1 (转染的Ba/F3细胞) (猕猴 (Cyno)); experiment: FACS, transfected against parental Ba/F3 cells; remark: listed apart in the source
[11] = biological target: 猕猴IL-13Rα1 (转染的Ba/F3细胞) (猕猴 (Cyno)); experiment: FACS on Ba/F3 cells transfected with cynomolgus IL-13Rα1, 10 μg/ml antibody
[12] = biological target: T2, 从hIL-13Rα1:hFc嵌合蛋白切割的hIL-13Rα1的细胞外结构域 (human, UniProt P78552 22-343); experiment: SPR Biacore 3000, C1 chip, antibody captured by anti-hFcγ, cleaved hIL-13Rα1 ECD as analyte, 1:1 Langmuir
T2 construct: extracellular domain; also called 切割的hIL-13Rα1分子
T2 sequence (looked up): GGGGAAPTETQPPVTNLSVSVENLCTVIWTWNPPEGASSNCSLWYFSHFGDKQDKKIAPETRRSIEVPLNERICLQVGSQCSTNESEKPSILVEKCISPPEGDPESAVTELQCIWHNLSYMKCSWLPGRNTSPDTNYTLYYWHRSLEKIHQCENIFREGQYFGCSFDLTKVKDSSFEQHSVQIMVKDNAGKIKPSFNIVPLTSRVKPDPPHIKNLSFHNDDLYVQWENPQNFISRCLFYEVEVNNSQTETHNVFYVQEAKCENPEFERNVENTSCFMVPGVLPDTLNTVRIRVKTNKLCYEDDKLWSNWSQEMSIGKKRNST

[13] = biological target: 猕猴IL-13Rα1 (转染的Ba/F3细胞) (猕猴 (Cyno)); experiment: FACS on Ba/F3 cells transfected with cynomolgus IL-13Rα1, 10 μg/ml antibody; remark: listed apart in the source

Molecule: 仅抗人IgG-FITC (antibody)
- 在Cyno IL-13Rα1存在下MFI的增加倍数 [7]: 2.2
- MFIBa/F3 Cyno IL-13Rα1 [8]: 5.5 MFI

B1: HuMab LC5002-002 (antibody, human IgG1, V domains shown)
VH: EVQLLESGGGLVQPGGSLRLSCAASGFTFNIYAMNWVRQAPGKGLEWVVISGRGITTYYADSVKGRFTISRDNSKNTLYLQMNSLRADDTAVYYCAKGSSSWTDFDYWGQGTLVTVSS
VL: DIQMTQSPSSLSASVGDRVTITCRASQGISRWVAWYQQKPEKAPKSLIYAASSLQSGVPSRFSGSGSGTDFTLTISSLQPEDFATYYCQQYNSYPWTFGQGTKVEIK
notes: Human IgG1 kappa antibody from a HuMab mouse hybridoma; also called hu-MAB<h-IL-13Ralpha>LC.5002-002 (DSM ACC2709)
- IL-13诱导的TF-1细胞增殖的抑制 IC50 [9]: 0.00921 µM
- 在Cyno IL-13Rα1存在下MFI的增加倍数 [10]: 79.8
- MFIBa/F3 Cyno IL-13Rα1 [11]: 83.7 MFI
- Kd [12]: 0.00062 µM
- koff [12]: 0.00065 s⁻¹
- kon [12]: 1.1e+06 M⁻¹ s⁻¹

B2: HuMab LC5002-003 (antibody, V domains shown)
VH: EVQLLESGGDLIQPGGSLRLSCAASGFTFNIYAMNWVRQAPGKGLEWVSVISGRGITTYYADSVKGRFTISRDNSKNTLYLQMDSLRAEDTAVYYCAKGSSYWTDFDYWGQGTLVTVSS
VL: DIQMTQSPSSLSASVGDRVTITCRASQGISSWLAWYQQKPEKAPKSLIYAASSLQSGVPSRFSGSGSGTDFTLTISSLQPEDFATYYCQQYNSYPWTFGQGTKVEIK
- IL-13诱导的Stat-6磷酸化的抑制 IC50 [9]: 0.00598 µM
- IL-13诱导的TF-1细胞增殖的抑制 IC50 [9]: 0.00307 µM
- 在Cyno IL-13Rα1存在下MFI的增加倍数 [2]: 79
- MFIBa/F3 Cyno IL-13Rα1 [13]: 82.4 MFI

The next lines start with the values.

- B淋巴细胞上CD23上调的抑制 IC50 [1]: 0.0136 µM
- IL-4诱导的增殖的IC50 [1]: 74.4 nM
- IL-13诱导的Stat-6磷酸化的抑制 IC50 [1]: 0.0186 µM
- IL-13诱导的TF-1细胞增殖的抑制 IC50 [1]: 0.0135 µM
- 人单核细胞上IL-13诱导的CD23上调的抑制 IC50 [1]: 0.0629 µM
- 抑制嗜曙红粒细胞趋化因子释放 平均IC50 [1]: 11.5 nM
- 在Cyno IL-13Rα1存在下MFI的增加倍数 [2]: 18
- MFIBa/F3 Cyno IL-13Rα1 [3]: 21.2 MFI
- IC50 [4]: 0.0848 µM
Molecule: 多克隆山羊抗人IL-13Rα1抗体AF152(R&D Systems) (antibody)

- 在Cyno IL-13Rα1存在下MFI的增加倍数 [5]: 2.4
- MFIBa/F3 Cyno IL-13Rα1 [6]: 5.7 MFI
Molecule: 正常山羊IgG (antibody)

- 在Cyno IL-13Rα1存在下MFI的增加倍数 [5]: 6.7
- MFIBa/F3 Cyno IL-13Rα1 [6]: 10.2 MFI
Molecule: 正常人IgG1(Nordic) (antibody)
